One data set concerns the target T1, Bat2 (Burkholderia rhizoxinica HKI 0454, UniProt E5AW45 1-997).
T1 sequence: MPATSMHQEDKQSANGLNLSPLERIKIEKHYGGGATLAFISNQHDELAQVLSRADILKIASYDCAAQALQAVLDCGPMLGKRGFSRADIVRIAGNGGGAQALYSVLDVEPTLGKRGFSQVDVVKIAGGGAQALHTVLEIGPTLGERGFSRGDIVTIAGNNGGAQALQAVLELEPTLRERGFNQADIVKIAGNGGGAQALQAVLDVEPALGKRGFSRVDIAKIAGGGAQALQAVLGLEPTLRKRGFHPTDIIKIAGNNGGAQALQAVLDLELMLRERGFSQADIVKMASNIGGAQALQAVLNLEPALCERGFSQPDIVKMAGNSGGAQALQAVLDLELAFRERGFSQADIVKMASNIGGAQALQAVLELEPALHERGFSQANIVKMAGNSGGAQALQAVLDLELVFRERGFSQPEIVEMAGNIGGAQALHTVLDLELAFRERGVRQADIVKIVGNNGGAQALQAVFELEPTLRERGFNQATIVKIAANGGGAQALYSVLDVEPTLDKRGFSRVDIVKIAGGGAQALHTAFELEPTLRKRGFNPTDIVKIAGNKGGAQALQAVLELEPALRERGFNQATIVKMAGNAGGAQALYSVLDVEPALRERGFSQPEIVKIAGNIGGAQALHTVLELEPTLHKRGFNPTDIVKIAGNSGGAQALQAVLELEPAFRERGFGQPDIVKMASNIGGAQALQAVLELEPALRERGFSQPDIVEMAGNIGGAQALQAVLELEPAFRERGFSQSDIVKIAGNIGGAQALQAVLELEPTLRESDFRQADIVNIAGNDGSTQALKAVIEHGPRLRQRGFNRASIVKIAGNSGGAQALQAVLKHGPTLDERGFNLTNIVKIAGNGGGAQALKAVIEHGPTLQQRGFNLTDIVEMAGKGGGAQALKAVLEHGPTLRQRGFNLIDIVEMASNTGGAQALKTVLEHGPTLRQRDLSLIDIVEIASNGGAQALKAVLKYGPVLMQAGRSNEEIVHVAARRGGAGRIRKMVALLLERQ
Nature of the data set: EMSA; 100 nM protein, 10 nM DNA, poly dI.dC; EMSA: 15 mM Tris-Cl, 75 mM KCl, 2.5 mM DTT, 0.063% NP-40, 62.5 ng/ul dI.dC, 0.125 mg/ml BSA, 6.25% glycerol, 6.25 mM MgCl2, 0.125 mM EDTA, room temp, gel at 4 C; MST: 20 mM Tris pH 7.4, 150 mM NaCl, 10 mM MgCl2, 0.05% Tween, room temp, 100 nM labelled Bat1. The note with it: protein: recombinant; tags: N-terminal His; label: 5' Cy5 forward strand. On the technique in general: A gel shift assay detects complexes by their altered migration in electrophoresis.

The next data set deals with T2, Bat3 (Burkholderia rhizoxinica HKI 0454, UniProt E5AW43 1-311).
T2 sequence: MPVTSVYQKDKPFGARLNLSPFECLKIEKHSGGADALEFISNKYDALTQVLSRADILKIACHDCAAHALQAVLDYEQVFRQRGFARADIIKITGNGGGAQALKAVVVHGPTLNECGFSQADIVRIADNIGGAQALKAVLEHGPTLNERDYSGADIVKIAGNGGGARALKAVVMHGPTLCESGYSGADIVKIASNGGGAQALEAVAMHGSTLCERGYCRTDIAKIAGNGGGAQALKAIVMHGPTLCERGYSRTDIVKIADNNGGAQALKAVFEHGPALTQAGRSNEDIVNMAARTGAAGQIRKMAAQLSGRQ
Described as above. The note with it: protein: recombinant; tags: N-terminal His; label: 5' Cy5 forward strand.

For data set [1], the target named is T3, Bat1 (BurrH) (Burkholderia rhizoxinica HKI 0454, UniProt E5AV36 1-771).
T3 sequence: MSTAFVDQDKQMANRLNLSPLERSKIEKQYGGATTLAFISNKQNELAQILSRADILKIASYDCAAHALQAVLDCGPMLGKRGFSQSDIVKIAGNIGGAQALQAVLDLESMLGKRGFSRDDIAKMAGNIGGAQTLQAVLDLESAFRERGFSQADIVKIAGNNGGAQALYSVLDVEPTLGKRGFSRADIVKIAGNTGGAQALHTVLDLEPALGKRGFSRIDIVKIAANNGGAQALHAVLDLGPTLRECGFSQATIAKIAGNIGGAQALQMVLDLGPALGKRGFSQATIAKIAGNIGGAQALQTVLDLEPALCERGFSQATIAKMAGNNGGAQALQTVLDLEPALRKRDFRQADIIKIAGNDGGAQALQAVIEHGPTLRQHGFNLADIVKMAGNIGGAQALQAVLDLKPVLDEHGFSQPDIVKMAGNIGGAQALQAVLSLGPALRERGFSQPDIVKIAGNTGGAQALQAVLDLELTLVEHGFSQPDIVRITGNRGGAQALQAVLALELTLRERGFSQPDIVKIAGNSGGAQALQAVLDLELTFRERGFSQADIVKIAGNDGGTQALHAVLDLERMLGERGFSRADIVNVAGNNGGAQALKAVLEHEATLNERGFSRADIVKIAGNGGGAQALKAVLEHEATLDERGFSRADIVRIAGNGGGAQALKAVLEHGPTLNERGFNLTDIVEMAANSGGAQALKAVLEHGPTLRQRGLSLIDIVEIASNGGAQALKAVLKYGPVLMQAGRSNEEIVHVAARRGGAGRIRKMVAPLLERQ
The data set is described as above. The note with it: protein: recombinant; tags: N-terminal His; label: 5' Cy5 forward strand.

The target in data set [2] is T3, Bat1 (BurrH). Nature of the data set: MST; 10 mM MgCl2; EMSA: 15 mM Tris-Cl, 75 mM KCl, 2.5 mM DTT, 0.063% NP-40, 62.5 ng/ul dI.dC, 0.125 mg/ml BSA, 6.25% glycerol, 6.25 mM MgCl2, 0.125 mM EDTA, room temp, gel at 4 C; MST: 20 mM Tris pH 7.4, 150 mM NaCl, 10 mM MgCl2, 0.05% Tween, room temp, 100 nM labelled Bat1. The note with it: protein: recombinant; tags: N-terminal His; label: none (stated unlabelled).

Changes are numbered by the printed parent chain.

B1: BEBat3, EMSA (dsDNA)
DNA 1: TAGACATAGATTATTATATTTGTAACAAGTAAATGC
DNA 2: GCATTTACTTGTTACAAATATAATAATCTATGTCTA
As to B1, the binding result in the data set with Bat2, with Bat3 and with Bat1 (BurrH) [1] was “no binding” throughout.

B2: BEBat1 C-0, MST (dsDNA)
DNA 1: TAGACCAAGAGAAGCAAAGACGTTATATGC
DNA 2: GCATATAACGTCTTTGCTTCTCTTGGTCTA
In the case of B2, the binding result with Bat1 (BurrH) [2] is reported as “binds”.

B3: BEBat1 T-0, MST (dsDNA)
DNA 1: B2 DNA 1 with C6T
DNA 2: B2 DNA 2 with G25A
As to B3, in the data set with Bat1 (BurrH) [2], the Kd (in general, the constant that tells how readily two partners part at equilibrium) amounted to 0.132 µM.

B4: BEBat1 (T0), EMSA (dsDNA)
DNA 1: B2 DNA 1 with C6T
DNA 2: B2 DNA 2 with G25A
As to B4, the binding result in the data set with Bat2 and with Bat3 was “no binding” each time.

B5: BEBat1 A-0, MST (dsDNA)
DNA 1: B2 DNA 1 with C6A
DNA 2: B2 DNA 2 with G25T
Take B5: the binding result with Bat1 (BurrH) [2] is “binds”.

B6: BEBat2, EMSA (dsDNA)
DNA 1: TAGACTTTGTTGAAAAGTTGTAAAAACATTATATGC
DNA 2: GCATATAATGTTTTTACAACTTTTCAACAAAGTCTA
For the molecule B6, the binding result with Bat2 is “binds”; in the data set with Bat3, “no binding”; in the data set with Bat1 (BurrH) [1] it was “no binding”.

B7: BEBat1 G-0, MST (dsDNA)
DNA 1: B2 DNA 1 with C6G
DNA 2: B2 DNA 2 with G25C
For the molecule B7, the binding result with Bat1 (BurrH) [2] is “binds”.

The record behind these values is paper PMC4066763, “Programmable DNA-binding proteins from Burkholderia provide a fresh perspective on the TALE-like repeat domain”.
